Data published in the supplement of paper PMC10567573.

B1: FAM46D (parent)
chain: FQEAMTHLQHKLICTRKPEEIRGG

Variants of: B1
Assay: protein stability index of a GFP-peptide fusion (GPS, HEK-293T) (PSI 1-6); higher = more stable
Conditions: c terminus: a fixed tail appended
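Note: lentivirally expressed fusions sorted by FACS into six bins by GFP to DsRed ratio, PSI derived from sequencing read proportions per bin multiplied by bin number.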

Protein stability index, by site and new letter:
I13: T 2.52, V 2.76, Y 3.58
C14: D 3.17, E 3.36, F 2.58, G 2.63, H 2.82, I 2.21, K 2.6, L 2.55, M 2.38, N 2.71, P 2.33, Q 2.51, R 3.28, S 2.87, T 2.7, V 2.96, W 1.68, Y 2.45
T15: A 3.06, C 2.42, D 3.01, E 3.06, G 3.56, H 2.22, I 2.21, K 3.42, L 1.77, M 3.17, N 2.79, P 3.04, Q 3.31, S 2.92, V 2.94, W 2.31, Y 2.17
R16: A 3.35, C 1.84, D 2.68, E 2.57, F 2.62, G 2.6, H 2.6, I 2.08, K 2.09, L 2.55, M 2.21, N 3.02, P 2.87, Q 3.16, S 2.75, T 2.56, V 2.77, W 1.67, Y 3.21
K17: A 2.58, C 1.91, D 3.46, E 3.03, F 2.03, G 2.77, H 2.38, I 2.68, L 1.66, M 2.87, N 2.9, P 2.52, Q 2.33, R 2.02, S 2.75, T 2.65, V 2.64, W 2.03, Y 1.85
P18: A 2.72, C 1.3, D 2.7, E 3.41, F 2.61, G 2.48, H 2.33, I 2, K 1.82, L 2.11, M 2.24, N 3.04, Q 2.19, R 2.09, S 2.43, T 2.85, V 2.54, W 2.35, Y 2.14
E19: A 2.79, C 1.97, D 2.55, F 2.09, G 1.83, H 2.3, I 1.98, K 2.67, L 2.26, M 1.58, N 2.53, P 3.13, Q 2.23, R 1.42, S 2.76, T 2.28, V 2.01, Y 2.15
E20: A 2.15, C 2.3, D 2.69, F 2.38, G 1.99, H 1.89, I 1.77, K 3.26, L 2.05, M 2.03, N 2.64, P 2.39, Q 2.33, R 2.19, S 2.33, T 2.5, V 2.38, W 2.08, Y 2.34
I21: A 3.27, C 2.73, D 3.26, E 2.98, F 2.62, G 2.69, H 3.4, K 3.72, L 2.34, M 2.9, N 3.87, P 3.36, Q 3.05, R 3.93, S 3.74, T 3.56, V 2.43, W 2.07, Y 2.21
R22: A 2.85, C 2.41, D 3.3, E 3.29, F 2.34, G 2.85, H 3.14, I 2.41, K 3.07, L 2.7, M 2.39, N 2.93, P 2.51, Q 2.94, S 2.66, T 2.96
